According to patent US9957297B2, “Template-fixed peptidomimetics as inhibitors of FPR1” (POLYPHOR AG, priority 2011, dated 2018):
Bridges are numbered along the chain shown (N, C = ends). [ ]: non-standard residue; d: D form. Dab = NCC[C@H](N)C(=O)O

Target: T1, Formyl-Peptide Receptor 1 (UniProt P21462 1-350, limits assumed)
T1 sequence (looked up): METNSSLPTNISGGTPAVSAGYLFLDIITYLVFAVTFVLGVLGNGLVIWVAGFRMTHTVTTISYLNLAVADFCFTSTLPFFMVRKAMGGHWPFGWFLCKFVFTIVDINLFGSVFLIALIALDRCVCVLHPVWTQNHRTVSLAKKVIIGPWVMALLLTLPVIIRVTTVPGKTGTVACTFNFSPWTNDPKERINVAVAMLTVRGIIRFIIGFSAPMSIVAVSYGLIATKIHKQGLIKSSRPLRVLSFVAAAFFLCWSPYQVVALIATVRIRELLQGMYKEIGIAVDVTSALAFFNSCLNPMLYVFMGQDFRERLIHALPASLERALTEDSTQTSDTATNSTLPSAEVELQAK
Assay: cell-based or functional assay

Row | Binder | β-Arrestin IC50
1 | cyclo(YHKCWG[dP]WTICYEK[dP]P) (disulfide 4-11; SMILES CC[C@H](C)[C@@H]1NC(=O)[C@H]([C@@H](C)O)NC(=O)[C@H](Cc2c[nH]c3ccccc23)NC(=O)[C@H]2CCCN2C(=O)CNC(=O)[C@H](Cc2c[nH]c3ccccc23)NC(=O)[C@@H]2CSSC[C@H](NC1=O)C(=O)N[C@@H](Cc1ccc(O)cc1)C(=O)N[C@@H](CCC(=O)O)C(=O)N[C@@H](CCCCN)C(=O)N1CCC[C@@H]1C(=O)N1CCC[C@H]1C(=O)N[C@@H](Cc1ccc(O)cc1)C(=O)N[C@@H](Cc1c[nH]cn1)C(=O)N[C@@H](CCCCN)C(=O)N2) [cyclo(-Tyr-His-Lys-Cys-Trp-Gly-^DPro-Trp-Thr-Ile-Cys-Tyr-Glu-Lys-^DPro-Pro-)] | 54 nM
2 | cyclo(YHKCWG[dP]WTICYE[Dab][dP]P) (disulfide 4-11) [cyclo(-Tyr-His-Lys-Cys-Trp-Gly-^DPro-Trp-Thr-Ile-Cys-Tyr-Glu-Dab-^DPro-Pro-)] | 53 nM
3 | cyclo(YHKCHG[dP]WTICYEW[dP]P) (disulfide 4-11; SMILES CC[C@H](C)[C@@H]1NC(=O)[C@H]([C@@H](C)O)NC(=O)[C@H](Cc2c[nH]c3ccccc23)NC(=O)[C@H]2CCCN2C(=O)CNC(=O)[C@H](Cc2c[nH]cn2)NC(=O)[C@@H]2CSSC[C@H](NC1=O)C(=O)N[C@@H](Cc1ccc(O)cc1)C(=O)N[C@@H](CCC(=O)O)C(=O)N[C@@H](Cc1c[nH]c3ccccc13)C(=O)N1CCC[C@@H]1C(=O)N1CCC[C@H]1C(=O)N[C@@H](Cc1ccc(O)cc1)C(=O)N[C@@H](Cc1c[nH]cn1)C(=O)N[C@@H](CCCCN)C(=O)N2) [cyclo(-Tyr-His-Lys-Cys-His-Gly-^DPro-Trp-Thr-Ile-Cys-Tyr-Glu-Trp-^DPro-Pro-)] | 16 nM
4 | cyclo(YHKCHG[dP]WTICYEE[dP]P) (disulfide 4-11; SMILES CC[C@H](C)[C@@H]1NC(=O)[C@H]([C@@H](C)O)NC(=O)[C@H](Cc2c[nH]c3ccccc23)NC(=O)[C@H]2CCCN2C(=O)CNC(=O)[C@H](Cc2c[nH]cn2)NC(=O)[C@@H]2CSSC[C@H](NC1=O)C(=O)N[C@@H](Cc1ccc(O)cc1)C(=O)N[C@@H](CCC(=O)O)C(=O)N[C@@H](CCC(=O)O)C(=O)N1CCC[C@@H]1C(=O)N1CCC[C@H]1C(=O)N[C@@H](Cc1ccc(O)cc1)C(=O)N[C@@H](Cc1c[nH]cn1)C(=O)N[C@@H](CCCCN)C(=O)N2) [cyclo(-Tyr-His-Lys-Cys-His-Gly-^DPro-Trp-Thr-Ile-Cys-Tyr-Glu-Glu-^DPro-Pro-)] | 57 nM
5 | cyclo(YHKCHG[dP]WTICYEH[dP]P) (disulfide 4-11; SMILES CC[C@H](C)[C@@H]1NC(=O)[C@H]([C@@H](C)O)NC(=O)[C@H](Cc2c[nH]c3ccccc23)NC(=O)[C@H]2CCCN2C(=O)CNC(=O)[C@H](Cc2c[nH]cn2)NC(=O)[C@@H]2CSSC[C@H](NC1=O)C(=O)N[C@@H](Cc1ccc(O)cc1)C(=O)N[C@@H](CCC(=O)O)C(=O)N[C@@H](Cc1c[nH]cn1)C(=O)N1CCC[C@@H]1C(=O)N1CCC[C@H]1C(=O)N[C@@H](Cc1ccc(O)cc1)C(=O)N[C@@H](Cc1c[nH]cn1)C(=O)N[C@@H](CCCCN)C(=O)N2) [cyclo(-Tyr-His-Lys-Cys-His-Gly-^DPro-Trp-Thr-Ile-Cys-Tyr-Glu-His-^DPro-Pro-)] | 73 nM
6 | cyclo(YHKCHG[dP]WTICYE[Dab][dP]P) (disulfide 4-11; SMILES CC[C@H](C)[C@@H]1NC(=O)[C@H]([C@@H](C)O)NC(=O)[C@H](Cc2c[nH]c3ccccc23)NC(=O)[C@H]2CCCN2C(=O)CNC(=O)[C@H](Cc2c[nH]cn2)NC(=O)[C@@H]2CSSC[C@H](NC1=O)C(=O)N[C@@H](Cc1ccc(O)cc1)C(=O)N[C@@H](CCC(=O)O)C(=O)N[C@@H](CCN)C(=O)N1CCC[C@@H]1C(=O)N1CCC[C@H]1C(=O)N[C@@H](Cc1ccc(O)cc1)C(=O)N[C@@H](Cc1c[nH]cn1)C(=O)N[C@@H](CCCCN)C(=O)N2) [cyclo(-Tyr-His-Lys-Cys-His-Gly-^DPro-Trp-Thr-Ile-Cys-Tyr-Glu-Dab-^DPro-Pro-)] | 82 nM
